The nanobody polyreactivity screen of Harvey et al. (2022)

Assay: yeast display, Sf9 membrane polyspecificity reagent, FACS + sequencing; frameworks hold sequencing errors
Procedure, shortened: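 Galactose induction of a Saccharomyces cerevisiae BJ5465 synthetic nanobody display library ran 36–48 hours. The cells were then stained for 1 hour at 4 °C with 10% biotinylated, detergent-solubilized Sf9 membrane reagent, pulled down on streptavidin microbeads and FACS-sorted into low and high (top ~1%) gates on expression and reagent-binding fluorescence. Labels for polyreactivity follow the gate of origin.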

| Sequence | polyreactivity (PSR sort gate) |
| --- | --- |
| QVQLVESGGGLDQAGGSLRLTCAASGSIFEIYDRGWYRQAPGKEMELVASIRTSGGSTFYADSVKGRFTISRDNAKNTVYLQMNSLKPEDTAVYYCAAGDVPRRIYLVYVGYLLDYWGQGTQVTVSS | low polyreactivity |
| QVQLVESGGGLDQAGGTLRLSSAASGSTFYTNAMGWYRQAPGKERELVAAISGSGGSTYYADSVKGRFTISRDNAKNTVYLQMNSLKPEDNAVYYCAARSRYYDTRFDYWGQGTQVTVSS | low polyreactivity |
| QVQLVESGGGLDQAGRSLRLSCAASGSTFPYTAMGWYRQAPGKYRELVAGITDGDGSTSYADSVKGRFTISRDNAKNTVYLQMNCMKPELPAVYYCAARYTYYADEDDYWGQGSQVTVSS | low polyreactivity |
| QVQLVESGGGLDQARGSLRLSCAASGITFHPNAMGWYRQAPGKERELVAAISGRRSRTYYADSVKGRFIISRDNAKNTVYLLLNSLKPEDTAVYYCAKDHPSGRQYDYWGQGTQVTVSS | high polyreactivity |
| QVQLVESGGGLDQARGSLRLSCAASGRTFYSYAMGWYRQAPGKERELVAAISKRGTSTYYADSVKGRFTISRDNAKNTVYLQMNSLKPEDTAVYYCDAGAYIWDIYSYRWYDYWGQGTQVTVSS | high polyreactivity |
| QVQLVESGGGLDQARGSLRLSCAASGSNFRYYAIGGYRPAHGKERELVASITGSGGRTYYADSVKGRFTISLDNAKNTVYLQMNSLKPEDTAVYYCAVPYHQGNMDYWGQGTQVTVSS | high polyreactivity |
| QVQLVESGGGLDQARGSLRLSCAASGSTFAFYAMGWYRQAPGKERELVAAITGDGDSTYYADSVKGRFTISRDNAKNTVYLQMNSLKPEDTAVYYCAKSSGGGPSSFDYWGQGTQVTVSS | low polyreactivity |
| QVQLVESGGGLDQARGSLRLSCAASGYTFYRNAMGWYRQAPGKVRELVAAIRDDGSTYYADSVKGRFTISRDNAKNTVYLHMNSLKPADTAVYYCNRDYPYIWHKGARYWHDNDYWGQGTQVTVSS | low polyreactivity |
| QVQLVESGGGLDQEGGSLRLSCAASGNIFSSYLMGWYRQAPGKEREVVAAISSRGGSTYYADSVKGRFTISRDNAKNSVYLQMNSLKPEDTAVYYCAARTGRYYRRYDYWGQGTQVTLSS | high polyreactivity |
| QVQLVESGGGLFHAGGRLRLSCAASGYTFRYYAMGWSRQAPGKERELVAGIDSGGGSTYYAASVKGRFTISRDNAKYTVYLQMNSLKPEDTAVYYCAVDTYSWYGEYYYWGQGTQVTVSS | high polyreactivity |
| QVQLVESGGGLFKAGGSLRLSCAASGFIFYFYNMAWYRQAPGKERELVAAISKSGTSTYYAASVKGRFTISRDNAKNTVYLQMNSLKPEDPAVYYCNKVRRANFDYWGQGTQVTVSS | high polyreactivity |
| QVQLVESGGGLFQAGASLRLSCAASGFIFTDYAIGWDTQAPGKERELVAAISSGGRTYYADSVKGRFTISRDNAKNTVYLQMNSLKPEDTAVYYCARGGRAEGWGQGTQVTVSS | high polyreactivity |
| QVQLVESGGGLFQAGGRLLLSCAASGRIFTYNTRGWYRQAPGKEREFVAAISSSSVSTYYADSVKGRITISRDNAKYTVYLQMNCLKPEDTAVYYCAAKRVGYHIGYVYPYGYWGQGTQVTVSS | high polyreactivity |
| QVQLVESGGGLFQAGGSLRISCAASGITFYGNAMGWYRQAPGKERELDATISSGGGTNYADSVKGRFTISRDNAKNTVYLQMNSLKPEDTAVYYCATDLSTVDYNYWGQGTQVTVSS | low polyreactivity |
| QVQLVESGGGLFQAGGSLRISCAATGSTFGSYAMGWYRQAPGKERELVAAISVGGGSTYYADSVKGRFTISRDNAKNTVYLKMNSLKPEDTAVFYCAATAPRWHHFYHWGQGTQVTVSS | high polyreactivity |
| QVQLVESGGGLFQAGGSLRLICAASGRIFDVNAMGWYRQAPRKEREMVAAISWSGGITYYADSVKGRFTISRDNAKNTVYLQMNSLKPEDTAVYYCAADKYQGYTFYQGYPGGGGYWGQGTQVTVSS | low polyreactivity |
